Series [1] deals with the molecule itself. Description: single-molecule TIRF microscopy (intensity distribution of fluorescent spots); receptors on living CHO cells labelled 1 h at 37 °C with a fluorescent (Cy3B) antagonist (1c, 4a or 4b) at 10-fold Ki; spots fitted with a mixed Gaussian model.
The target in series [2] is T1, N-terminally SNAP-tagged human dopamine D2L receptor (human), P14416.
T1 chain: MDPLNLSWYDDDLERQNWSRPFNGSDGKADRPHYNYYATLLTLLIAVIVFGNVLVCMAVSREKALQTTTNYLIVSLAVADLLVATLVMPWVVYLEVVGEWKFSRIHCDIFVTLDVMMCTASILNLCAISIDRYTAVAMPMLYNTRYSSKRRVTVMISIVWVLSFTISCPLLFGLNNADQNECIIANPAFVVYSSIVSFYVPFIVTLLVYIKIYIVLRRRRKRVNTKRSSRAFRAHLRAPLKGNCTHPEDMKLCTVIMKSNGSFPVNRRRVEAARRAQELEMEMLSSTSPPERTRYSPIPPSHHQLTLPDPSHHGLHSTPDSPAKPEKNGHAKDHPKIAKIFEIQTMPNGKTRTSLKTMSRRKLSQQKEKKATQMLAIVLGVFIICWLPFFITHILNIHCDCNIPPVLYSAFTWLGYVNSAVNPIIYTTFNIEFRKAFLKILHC
Description: single-molecule TIRF microscopy (intensity distribution of fluorescent spots); Alexa546-BG-labelled SNAP-D2L on living CHO cells, incubated 1 h with the bivalent antagonists 2a or 2b at 10-fold Ki. To be noted: remark: other sources report otherwise.

In series [3] the target is T1, N-terminally SNAP-tagged human dopamine …. Description: single-molecule TIRF microscopy (apparent lifetime of particle colocalization); Alexa546-labelled SNAP-D2L on living CHO cells with the bivalent ligand 2a; 120 trajectories, one-phase exponential decay; apparent. To be noted: remark: other sources report otherwise.
The target is the same in series [4]. Put plainly: single-molecule TIRF microscopy (apparent lifetime of particle colocalization); Alexa546-labelled SNAP-D2L on living CHO cells with the monovalent ligand 1a; 120 trajectories, one-phase exponential decay; apparent. To be noted: remark: other sources report otherwise.
For series [5] the target is unchanged. Description: single-molecule TIRF microscopy (intensity distribution of fluorescent spots); receptors on living CHO cells labelled 1 h at 37 °C with a fluorescent (Cy3B) antagonist (1c, 4a or 4b) at 10-fold Ki; spots fitted with a mixed Gaussian model. To be noted: remark: other sources report otherwise.
Series [6] has the same target. Put plainly: single-molecule TIRF microscopy (lifetime of transient dimers from intensity trajectories); Alexa546-labelled SNAP-D2L on living CHO cells, ligand-free; 120 dimers whose trajectories show intensity doubling and return; one-phase exponential fit. To be noted: remark: other sources report otherwise.
For series [7] the target is unchanged. Description: single-molecule TIRF microscopy (intensity distribution of fluorescent spots); Alexa546-BG-labelled SNAP-D2L on living CHO cells, incubated 1 h with the unsymmetrical control ligands 3a or 3b (one pharmacophore, one non-binding motif) at 10-fold Ki. To be noted: remark: other sources report otherwise.
The target is the same in series [8]. Description: single-molecule TIRF microscopy (apparent lifetime of particle colocalization); Alexa546-labelled SNAP constructs on living CHO cells, ligand-free; time from the beginning of tracking to a one-step intensity change, 120 trajectories, one-phase exponential decay; apparent. To be noted: remark: other sources report otherwise.
The target is the same in series [9]. Put plainly: single-molecule TIRF microscopy (intensity distribution of fluorescent spots); living stably transfected CHO cells, SNAP-tag labelled with 1 uM Alexa546-BG, ligand-free; spots of the first 10 frames fitted with a mixed Gaussian model; room temperature (24.0 ± 0.3 °C), imaging buffer pH 7.4; SNAP-D2L at 0.67 ± 0.03 spots um^-2. To be noted: remark: other sources report otherwise.

Series [10] deals with T2, human dopamine D2L receptor (wild type, non-tagged) (human), P14416.
T2 chain: T1 chain
Put plainly: single-molecule TIRF microscopy (intensity distribution of fluorescent spots); receptors on living CHO cells labelled 1 h at 37 °C with a fluorescent (Cy3B) antagonist (1c, 4a or 4b) at 10-fold Ki; spots fitted with a mixed Gaussian model. To be noted: remark: other sources report otherwise.

Series [11] deals with T2, human dopamine D2L receptor (wild type, …). Description: single-molecule TIRF microscopy (intensity distribution of fluorescent spots); receptors on living CHO cells labelled 1 h at room temperature with a fluorescent (Cy3B) agonist (5a or 5b) at 10-fold Ki; spots fitted with a mixed Gaussian model. To be noted: remark: other sources report otherwise.

We go through four molecules from paper PMC5018964, “Visualization and ligand-induced modulation of dopamine receptor dimerization at the single molecule level” (Scientific Reports, 2016).

B1: human dopamine D3 receptor (receptor, UniProt P35462 1-400, looked up)
chain: MASLSQLSGHLNYTCGAENSTGASQARPHAYYALSYCALILAIVFGNGLVCMAVLKERALQTTTNYLVVSLAVADLLVATLVMPWVVYLEVTGGVWNFSRICCDVFVTLDVMMCTASILNLCAISIDRYTAVVMPVHYQHGTGQSSCRRVALMITAVWVLAFAVSCPLLFGFNTTGDPTVCSISNPDFVIYSSVVSFYLPFGVTVLVYARIYVVLKQRRRKRILTRQNSQCNSVRPGFPQQTLSPDPAHLELKRYYSICQDTALGGPGFQERGGELKREEKTRNSLSPTIAPKLSLEVRKLSNGRLSTSLKLGPLQPRGVPLREKKATQMVAIVLGAFIVCWLPFFLTHVLNTHCQTCHVSPELYSATTWLGYVNSALNPVIYTTFNIEFRKAFLKILSC
notes: human dopamine D3 receptor, non-tagged; source: dihydrofolate reductase gene-deficient CHO-K1 cells, stably expressing, in the membrane of living cells
As a reminder, the stoichiometry N is a count of units in the complex or per binding partner. Take B1: in series [1], the “stoichiometry N” value was determined as 2.

B2: N-terminally SNAP-tagged human dopamine D2L receptor, P14416 1-443 (receptor)
chain: T1 chain
modifications: here or on the partner: Alexa546 covalently on the SNAP-tag through benzylguanine (Alexa546-BG) in the SNAP-labelling experiments; Alexa546 covalently on the SNAP-tag through benzylguanine (Alexa546-BG) in the SNAP-labelling experiments
Turning to B2, in series [2], the percent of fluorescent spots that are dimers, with bivalent antagonist 2a is 66% and the percent of fluorescent spots that are dimers, with bivalent antagonist 2b was 58%. In addition, the apparent colocalization lifetime (tau), with bivalent ligand 2a in series [3] turned out to be 1.16 s. The apparent colocalization lifetime (tau), with monovalent ligand 1a in series [4] is 0.42 s. Further, in series [5], the percent of fluorescent spots that are dimers, labelled with antagonist 1c was determined as 26% and the percent of fluorescent spots that are monomers, labelled with antagonist 1c is 74%. Besides, in series [6], the half-life (t1/2) of the transient dimer came to 0.35 s and the lifetime of the transient dimer came to 0.5 s. In [7], this molecule returned a percent of fluorescent spots that are dimers, with control ligand 3a of 33%; a percent of fluorescent spots that are dimers, with control ligand 3b of 34%; a percent of fluorescent spots that are monomers, with control ligand 3a of 67%; a percent of fluorescent spots that are monomers, with control ligand 3b of 66%. In addition, in [8], the apparent colocalization lifetime (tau) came out at 0.46 s. In [9], this molecule returned a percent of fluorescent spots that are dimers of 30%, a percent of fluorescent spots that are monomers of 70% and a stoichiometry N of 2.

B3: human dopamine D2L receptor (wild type, non-tagged), P14416 1-443 (receptor)
chain: T1 chain
Regarding B3, in [10], the percent of fluorescent spots that are dimers, labelled with antagonist 1c came to 29%; the percent of fluorescent spots that are dimers, labelled with antagonist 4a amounted to 30%; the percent of fluorescent spots that are dimers, labelled with antagonist 4b was determined as 29%; the percent of fluorescent spots that are monomers, labelled with antagonist 1c amounted to 71%. Also, in series [10], the percent of fluorescent spots that are monomers, labelled with antagonist 4a is 70% and the stoichiometry N was found to be 2. For the same molecule, in series [11], the percent of fluorescent spots that are dimers, labelled with agonist 5a was found to be 45% and the percent of fluorescent spots that are dimers, labelled with agonist 5b turned out to be 42%.

B4: human dopamine D2S receptor (receptor, UniProt P14416-2 1-414, looked up)
chain: MDPLNLSWYDDDLERQNWSRPFNGSDGKADRPHYNYYATLLTLLIAVIVFGNVLVCMAVSREKALQTTTNYLIVSLAVADLLVATLVMPWVVYLEVVGEWKFSRIHCDIFVTLDVMMCTASILNLCAISIDRYTAVAMPMLYNTRYSSKRRVTVMISIVWVLSFTISCPLLFGLNNADQNECIIANPAFVVYSSIVSFYVPFIVTLLVYIKIYIVLRRRRKRVNTKRSSRAFRAHLRAPLKEAARRAQELEMEMLSSTSPPERTRYSPIPPSHHQLTLPDPSHHGLHSTPDSPAKPEKNGHAKDHPKIAKIFEIQTMPNGKTRTSLKTMSRRKLSQQKEKKATQMLAIVLGVFIICWLPFFITHILNIHCDCNIPPVLYSAFTWLGYVNSAVNPIIYTTFNIEFRKAFLKILHC
notes: human dopamine D2S receptor (short form of the D2 receptor), non-tagged; source: CHO-K1, stably expressing, in the membrane of living cells
For the molecule B4, the “stoichiometry N” value in series [1] came to 2.
